# T1: 猴CD137胞外段 (SEQ ID No.20) (monkey, UniProt Q07011 24-186 (human entry))
# T1 construct: Expressed in HEK293; no tag is stated; also called 猴CD137抗原
# T1 chain: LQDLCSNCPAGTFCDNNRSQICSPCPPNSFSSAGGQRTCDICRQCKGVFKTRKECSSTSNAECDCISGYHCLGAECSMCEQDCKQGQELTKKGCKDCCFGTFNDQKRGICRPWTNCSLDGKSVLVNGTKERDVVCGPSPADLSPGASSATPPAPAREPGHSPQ
# Columns and labels:
# [1] = target: T2, 人CD137全长 (SEQ ID No.19)，表达于细胞 (human, UniProt Q07011 24-255); assay: flow cytometry (FACS) on CHO-K1/hCD137 cells, goat anti-human FITC; antibody at 250 nM
# T2 construct: The full-length entry was transfected into CHO-K1 cells for FACS and into HEK293 cells for the reporter assay; also called CHO-K1/hCD137; 细胞表面人CD137
# T2 sequence (Q07011 24-255 limits assumed): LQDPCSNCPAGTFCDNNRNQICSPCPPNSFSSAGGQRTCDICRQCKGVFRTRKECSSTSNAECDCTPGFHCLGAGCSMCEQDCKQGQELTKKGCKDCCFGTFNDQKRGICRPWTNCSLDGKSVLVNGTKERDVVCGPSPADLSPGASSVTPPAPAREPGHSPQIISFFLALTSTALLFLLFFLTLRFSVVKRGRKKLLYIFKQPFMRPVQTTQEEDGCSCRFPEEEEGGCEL
# [2] = target: T3, 人PD-L1胞外段 (SEQ ID No.22 第19-238位)，带His标签 (human, UniProt Q9NZQ7 19-238); assay: bridging ELISA: human PD-L1-His coated, bispecific antibody, then human CD137-mouse Fc, goat anti-mouse HRP
# T3 construct: It may be the same preparation as m7; not shown: His tag
# T3 sequence (Q9NZQ7 19-238): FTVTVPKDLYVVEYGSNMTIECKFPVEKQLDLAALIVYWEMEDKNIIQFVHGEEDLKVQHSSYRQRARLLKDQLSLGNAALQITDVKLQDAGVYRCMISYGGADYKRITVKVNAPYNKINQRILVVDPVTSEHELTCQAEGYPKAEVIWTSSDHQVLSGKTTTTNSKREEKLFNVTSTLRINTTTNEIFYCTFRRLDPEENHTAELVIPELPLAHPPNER
# [3] = target: T2, 人CD137全长 (SEQ ID No.19)，表达于细胞; assay: flow cytometry (FACS) on CHO-K1/hCD137 cells, goat anti-human FITC; antibody at 0.342935528 nM
# [4] = target: T2, 人CD137全长 (SEQ ID No.19)，表达于细胞; assay: flow cytometry (FACS) on CHO-K1/hCD137 cells, goat anti-human FITC; antibody at 1.028806584 nM
# [5] = target: T2, 人CD137全长 (SEQ ID No.19)，表达于细胞; assay: flow cytometry (FACS) on CHO-K1/hCD137 cells, goat anti-human FITC; antibody at 27.77777778 nM
# [6] = target: T2, 人CD137全长 (SEQ ID No.19)，表达于细胞; assay: flow cytometry (FACS) on CHO-K1/hCD137 cells, goat anti-human FITC; antibody at 9.259259259 nM
# [7] = target: T4, 人PD-L1胞外段 (SEQ ID No.22 第19-238位) (human, UniProt Q9NZQ7 19-238); assay: ELISA, human PD-L1 extracellular domain coated, goat anti-human HRP
# T4 construct: also called 人PD-L1抗原
# T4 sequence (Q9NZQ7 19-238): as above
# [8] = target: T2, 人CD137全长 (SEQ ID No.19)，表达于细胞; assay: flow cytometry (FACS) on CHO-K1/hCD137 cells, goat anti-human FITC; antibody at 3.086419753 nM
# [9] = target: T5, 人PD-L1全长 (SEQ ID No.22)，表达于CHO-K1细胞 (human, UniProt Q9NZQ7 19-290); assay: flow cytometry (FACS) on CHO-K1/hPD-L1 cells, goat anti-human FITC
# T5 construct: The full-length entry was transfected; also called CHO-K1/hPD-L1; 细胞表面人PD-L1
# T5 sequence (Q9NZQ7 19-290 limits assumed): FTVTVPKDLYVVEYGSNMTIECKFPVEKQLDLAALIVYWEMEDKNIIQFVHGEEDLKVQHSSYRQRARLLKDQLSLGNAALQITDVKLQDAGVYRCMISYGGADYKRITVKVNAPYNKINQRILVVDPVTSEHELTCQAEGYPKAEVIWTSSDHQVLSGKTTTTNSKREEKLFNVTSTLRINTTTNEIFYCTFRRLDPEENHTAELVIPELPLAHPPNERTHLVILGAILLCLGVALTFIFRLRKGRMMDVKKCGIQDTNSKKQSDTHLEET
# [10] = target: T2, 人CD137全长 (SEQ ID No.19)，表达于细胞; assay: flow cytometry (FACS) on CHO-K1/hCD137 cells, goat anti-human FITC; antibody at 83.33333333 nM
# [11] = target: T2, 人CD137全长 (SEQ ID No.19)，表达于细胞; assay: flow cytometry (FACS) on CHO-K1/hCD137 cells, goat anti-human FITC; 4-parameter logistic fit
# 猴PD-L1胞外段 (SEQ ID No.23) = target: T6, 猴PD-L1胞外段 (SEQ ID No.23) (monkey, UniProt Q9NZQ7 19-238 (human entry)); assay: ELISA, monkey PD-L1 extracellular domain coated, goat anti-human HRP
# T6 construct: Expressed in HEK293; no tag is stated; also called 猴PD-L1抗原
# T6 sequence (Q9NZQ7 other isoform, or with tags, fused parts or gaps): as the sequence (Q9NZQ7 19-238) above, with A33T, A34S, S62N, R68Q, Q82R, F173L, T185A, T192I, H215L counted along it
# 猴CD137胞外段 (SEQ ID No.20) = target: T1, 猴CD137胞外段 (SEQ ID No.20); assay: ELISA, monkey CD137 extracellular domain coated, goat anti-human HRP
Binder,FACS signal (read-out name not given) [1],binding result [2],FACS signal (read-out name not given) [3],FACS signal (read-out name not given) [4],FACS signal (read-out name not given) [5],FACS signal (read-out name not given) [6],binding result [7],FACS signal (read-out name not given) [8],binding result [9],FACS signal (read-out name not given) [10],EC50 [11],binding result (猴PD-L1胞外段 (SEQ ID No.23)),binding result (猴CD137胞外段 (SEQ ID No.20))
"抗人PD-L1/CD137双特异性抗体 结构B (1st scFv-L1-Fc-L2-2nd Fab) (bispecific antibody, human IgG4 S228P, kappa, F234A L235A, Anti-CD137 scFv at the N-terminus of human IgG4 Fc, anti-PD-L1 Fab at its C-terminus; also called B结构) heavy: not shown light: DIQMTQSPSTLSASVGDRVTITCQSSQNVYSNNRLSWYQQKPGKAPKLLIYWTSFLASGVPSRFSGSGSGTEFTLTISSLQPDDFATYYCAGGYSGNLYTFGQGTKLEIKRTVAAPSVFIFPPSDEQLKSGTASVVCLLNNFYPREAKVQWKVDNALQSGNSQESVTEQDSKDSTYSLSSTLTLSKADYEKHKVYACEVTHQGLSSPVTKSFNRGEC",16200,binds,2680,3020,12100,8000,binds,4096,binds,16100,14.4 nM,–,–
"抗人PD-L1/CD137双特异性抗体 结构D3 (D1的突变分子) (bispecific antibody, human IgG4 S228P, kappa, F234A L235A, Mutant of D1; also called D3结构) heavy: not shown light: DIQMTQSPSTLSASVGDRVTITCQSSQNVYSNNRLSWYQQKPGKAPKLLIYWTSFLASGVPSRFSGSGSGTEFTLTISSLQPDDFATYYCAGGYSGNLYTFGQGTKLEIKRTVAAPSVFIFPPSDEQLKSGTASVVCLLNNFYPREAKVQWKVDNALQSGNSQESVTEQDSKDSTYSLSSTLTLSKADYEKHKVYACEVTHQGLSSPVTKSFNRGEC",16600,–,2590,2620,14600,7390,–,2920,–,16700,12.4 nM,–,–
"抗人PD-L1/CD137双特异性抗体 结构D6 (D2的突变分子) (bispecific antibody, human IgG4 S228P, kappa, F234A L235A, Mutant of D2; also called D6结构) heavy: not shown light: DIQMTQSPSTLSASVGDRVTITCQSSQNVYSNNRLSWYQQKPGKAPKLLIYWTSFLASGVPSRFSGSGSGTEFTLTISSLQPDDFATYYCAGGYSGNLYTFGQGTKLEIKRTVAAPSVFIFPPSDEQLKSGTASVVCLLNNFYPREAKVQWKVDNALQSGNSQESVTEQDSKDSTYSLSSTLTLSKADYEKHKVYACEVTHQGLSSPVTKSFNRGEC",15300,binds,2620,2770,11100,7030,binds,3930,binds,15400,16.4 nM,binds,binds

# — patent publication CN115677858A (HEFEI HANKEMAB BIOTECHNOLOGY CO LTD; ANHUI ANKE …, dated 2023)
